{"source": "paper PMC2806950", "biological_target": "T1, Ocr (overcome classical restriction) protein of bacteriophage T7, unmodified (bacteriophage T7), P03775", "T1 chain": "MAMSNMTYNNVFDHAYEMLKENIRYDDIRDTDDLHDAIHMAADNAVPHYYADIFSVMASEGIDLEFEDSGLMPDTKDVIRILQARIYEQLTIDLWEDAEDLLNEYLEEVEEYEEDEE", "assay": "native gel or EMSA; blue native PAGE (NativePAGE Novex 4-16% Bis-Tris) of unmodified Ocr; also native 15% PAGE, non-denaturing reducing conditions", "conditions": "remark: other sources report otherwise", "data": [{"binder": "Ocr (overcome classical restriction) protein of bacteriophage T7, unmodified, P03775 1-117 (natural protein) MAMSNMTYNNVFDHAYEMLKENIRYDDIRDTDDLHDAIHMAADNAVPHYYADIFSVMASEGIDLEFEDSGLMPDTKDVIRILQARIYEQLTIDLWEDAEDLLNEYLEEVEEYEEDEE", "values": [{"measurement": "stoichiometry N", "value": 4}]}]}
